Where a chain is given by its changes, count along the chain named.
T1: murine β-Klotho (murine, UniProt Q99N32 1-1043)
T1 construct: Full length (GenBank NP-112457), transiently expressed on HEK-293T cells; also called mu β-klotho; mouse β-Klotho
T1 sequence: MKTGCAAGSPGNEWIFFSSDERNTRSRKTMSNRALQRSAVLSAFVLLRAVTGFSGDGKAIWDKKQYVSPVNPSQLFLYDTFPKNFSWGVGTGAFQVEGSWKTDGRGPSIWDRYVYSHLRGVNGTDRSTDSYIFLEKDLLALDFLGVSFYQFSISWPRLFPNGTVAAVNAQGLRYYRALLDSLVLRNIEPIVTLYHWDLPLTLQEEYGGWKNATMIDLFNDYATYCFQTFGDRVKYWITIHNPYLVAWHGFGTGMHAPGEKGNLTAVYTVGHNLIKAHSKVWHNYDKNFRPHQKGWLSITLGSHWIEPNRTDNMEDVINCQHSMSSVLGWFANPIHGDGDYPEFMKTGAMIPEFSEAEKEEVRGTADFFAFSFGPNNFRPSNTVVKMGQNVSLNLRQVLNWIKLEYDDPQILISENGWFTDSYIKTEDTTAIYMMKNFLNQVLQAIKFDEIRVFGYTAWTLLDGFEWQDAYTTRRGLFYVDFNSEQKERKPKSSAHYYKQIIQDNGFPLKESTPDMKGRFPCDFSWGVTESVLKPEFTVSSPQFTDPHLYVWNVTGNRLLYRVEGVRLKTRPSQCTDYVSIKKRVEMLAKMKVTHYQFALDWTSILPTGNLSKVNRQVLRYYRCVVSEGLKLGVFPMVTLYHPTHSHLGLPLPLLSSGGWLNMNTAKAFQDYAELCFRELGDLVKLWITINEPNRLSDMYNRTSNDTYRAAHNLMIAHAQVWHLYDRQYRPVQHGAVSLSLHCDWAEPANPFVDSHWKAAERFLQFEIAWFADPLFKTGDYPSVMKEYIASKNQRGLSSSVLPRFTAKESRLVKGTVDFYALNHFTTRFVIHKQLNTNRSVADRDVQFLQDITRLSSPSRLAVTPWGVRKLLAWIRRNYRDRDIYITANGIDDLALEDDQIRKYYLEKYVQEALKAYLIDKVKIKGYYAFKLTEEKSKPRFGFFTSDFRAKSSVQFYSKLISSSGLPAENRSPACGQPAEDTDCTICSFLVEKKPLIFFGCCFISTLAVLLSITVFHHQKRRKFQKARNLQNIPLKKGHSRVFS

T2: huBeta_Klotho (1-301, 509-743, 967-1044) (muBeta KLOTHO 302-506, 742-964) (human; murine, UniProt Q86Z14 1-1044)
T2 construct: also called Chimera 14; Construct 14
T2 chain: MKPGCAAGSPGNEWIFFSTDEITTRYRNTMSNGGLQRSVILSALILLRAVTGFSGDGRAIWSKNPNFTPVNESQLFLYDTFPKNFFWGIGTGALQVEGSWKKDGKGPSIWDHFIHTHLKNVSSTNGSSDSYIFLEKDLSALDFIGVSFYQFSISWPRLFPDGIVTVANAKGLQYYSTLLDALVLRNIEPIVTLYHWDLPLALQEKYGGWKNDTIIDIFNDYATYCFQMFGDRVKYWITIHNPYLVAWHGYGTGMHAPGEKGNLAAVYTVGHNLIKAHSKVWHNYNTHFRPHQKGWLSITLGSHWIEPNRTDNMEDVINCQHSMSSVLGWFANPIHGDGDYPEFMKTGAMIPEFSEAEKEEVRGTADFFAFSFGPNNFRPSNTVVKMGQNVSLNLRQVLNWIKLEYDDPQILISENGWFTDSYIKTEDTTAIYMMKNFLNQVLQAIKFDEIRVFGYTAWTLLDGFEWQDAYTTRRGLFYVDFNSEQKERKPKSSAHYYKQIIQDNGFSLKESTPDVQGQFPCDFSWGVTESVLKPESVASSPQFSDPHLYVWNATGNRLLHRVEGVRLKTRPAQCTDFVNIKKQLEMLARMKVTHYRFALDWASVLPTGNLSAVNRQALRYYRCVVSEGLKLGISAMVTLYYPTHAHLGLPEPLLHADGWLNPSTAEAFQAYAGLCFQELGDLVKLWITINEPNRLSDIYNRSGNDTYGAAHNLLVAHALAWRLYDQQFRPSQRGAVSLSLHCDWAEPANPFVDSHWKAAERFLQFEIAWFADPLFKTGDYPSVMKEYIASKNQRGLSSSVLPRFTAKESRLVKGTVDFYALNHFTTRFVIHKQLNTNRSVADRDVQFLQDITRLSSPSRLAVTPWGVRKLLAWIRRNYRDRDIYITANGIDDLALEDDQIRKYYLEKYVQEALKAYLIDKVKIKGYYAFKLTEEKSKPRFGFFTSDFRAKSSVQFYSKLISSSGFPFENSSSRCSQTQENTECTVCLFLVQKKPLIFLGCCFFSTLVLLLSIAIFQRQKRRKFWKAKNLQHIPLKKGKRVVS

B1: 65C3.1 (antibody, V domains shown)
VH: QVQLQESGPGLVKPSETLSLTCTVSGGSISSYYWSWIRQPPGKGLEWIGYIYYTGSTNYNPSLKSRVTISVDTSKNQFSLKLSSVTAADTAVYYCAREYYYGSGSYYPWGQGTLVTVSS
VL: EMVMTQSPATLSVSPGERATLSCRASQSVSSQLAWYQEKPGRAPRLLIYGASNRAIDIPARLSGSGSGTEFTLTISSLQSEDFAVYYCQQYNNWPWTFGQGTKVEFKR
B2: 67C10.1 (antibody, V domains shown)
VH: EVQLVQSGAEVKKPGESLKISCQGSGYSFSSYWIGWVRQMPGKGLEWMGIIYPGDSDTRYSPSFQGQVTISADKSINTAYLQWSSLKASDTAIYYCARRASRGYRYGLAFAIWGQGTMVTVSS
VL: DFVMTQTPLSLPVTPGEPASISCRSSQSLLNSDDGNTYLDWYLQKPGQSPQLLIYTLSYRASGVPDRFSGSGSGTDFTLKISRVEAEDVGVYYCMQRIEFPITFGQGTRLEIKR
B3: 51E5.1 (antibody, V domains shown)
VH: QVQLQQWGAGLLKPSETLSLTCAVYGGSFSGYYWSWIRQPPGKGLEWIGELDHSGSINYNPSLKSRVTISVDTSKNQFSLKLTSVTAADTAVYYCARVLGSTLDYWGQGTLVTVSS
VL: DIQMTQSPSSLSASVGDRVTITCRASQDIRNDLGWYQQKPGKAPNRLIYAASSLQFGVPSRFSGSGSGTEFTLTISSLQPEDFATYYCLQHSSYPLTFGGGTRVEIKR
B4: 66G2.1 (antibody, V domains shown)
VH: QVQLVESGGGVVQPGRSLRLSCAASGFTFSSYGMHWVRQAPGKGLEWVAGISYDGSNKNYADSVKGRITISRDNPKNTLYLQMNSLRAEDTAVYYCATTVTKEDYYYYGMDVWGQGTTVTVSS
VL: B3 VL with D28G, N45K, S53N, F56S, E70K, S76N, H91L, S92N, S93G, R103K
B5: 67F5.1 (antibody, V domains shown)
VH: B1 VH with Q5K, T54S, S56N
VL: EIVMTQSPATLSVSPGERVTLSCRASQSVSSNLAWYQQKPGQAPRLLIHGSSNRAIGIPARFSGSGSGTEFTLTISSLQSADFAVYNCQQYEIWPWTFGQGTKVEIKR
B6: 49G3.3 (antibody, V domains shown)
VH: QVTLKESGPVLVKPTETLTLTCTVSGFSLSNPRMGVSWIRQPPGKALEWLTHIFSNDEKSYSTSLKSRLTISKDTSKSQVVLSMTNMDPVDTATYYCVRVDTLNYHYYGMDVWGQGTTVTVSS
VL: DIQMTQSPSSLSASIGDRVTITCQASQGISNYLNWYQQKPGKAPKLLIYDASNLETGVPSRFSGSGSGTDFTFTISSLQPEDIATYYCHQYDDLPLTFGGGTKVEIRR

These binders were tested against T3, human FGFR1c (human, UniProt P11362 22-822) (assay: flow cytometry, transfected HEK293T).
T3 construct: Full length (GenBank NP-075598), expressed on transfected 293T cells; also called huFGFR1c; FGFR1c alone
B1: no binding.
B2: no binding.
B3: no binding.
B4: no binding.
B5: no binding.
B6: no binding.

The binders below were run against T4, huBeta_Klotho (1-81, 303-1044) (muBetaKLOTHO 82P-302S) (human; murine, UniProt Q86Z14 1-1044) (assay: flow cytometry, transfected HEK-293T).
T4 construct: also called Chimera 4; Construct 4
B1: binds.
B2: binds.
B3: binds.
B4: binds.
B5: binds.
B6: binds.

The binders below were run against T5, huBeta_Klotho(1-301, 509-1044) (muBetaKLOTHO S302-F506) (human; murine, UniProt Q86Z14 1-1044) (assay: flow cytometry, transfected HEK-293T).
T5 construct: also called Chimera 6; Construct 6
B1: binds.
B2: binds.
B3: binds.
B4: binds.
B5: binds.
B6: no binding.

These binders were tested against T6, huBeta_Klotho (1-633, 852-1044) (muBeta KLOTHO 632G-849Q) (human; murine, UniProt Q86Z14 1-1044) (assay: flow cytometry, transfected HEK-293T).
T6 construct: also called Chimera 10; Construct 10
B1: binds.
B2: no binding.
B3: no binding.
B4: no binding.
B5: no binding.
B6: binds.

These binders were tested against T7, huBeta_Klotho (194-1044) (muBetaKLOTHO 1-L193) (murine; human, UniProt Q86Z14 1-1044) (assay: flow cytometry, transfected HEK-293T).
T7 construct: also called Chimera 3; Construct 3
B1: binds.
B2: binds.
B3: binds.
B4: binds.
B5: binds.
B6: no binding.

What follows are binders tested against T8, huBeta_Klotho (1-81, 194-1044) (muBeta KLOTHO 82P-193L) (human; murine, UniProt Q86Z14 1-1044) (assay: flow cytometry, transfected HEK-293T).
T8 construct: also called Chimera 13; Construct 13
B1: binds.
B2: binds.
B3: binds.
B4: binds.
B5: binds.
B6: binds.

What follows are binders tested against T9, huBeta_Klotho (1-507) (muBetaKLOTHO 506F-1045S) (human; murine, UniProt Q99N32 1-1043) (assay: flow cytometry, transfected HEK-293T).
T9 construct: also called Chimera 2; Construct 2
B1: no binding.
B2: no binding.
B3: no binding.
B4: no binding.
B5: no binding.
B6: binds.

These binders were tested against T1, murine β-Klotho (assay: flow cytometry, transfected HEK-293T).
B1: no binding.
B2: no binding.
B3: no binding.
B4: no binding.
B5: no binding.
B6: no binding.

Molecular target: T2, huBeta_Klotho (1-301, 509-743, …)
Assay: flow cytometry, transfected HEK-293T
B1: no binding.
B2: no binding.
B3: no binding.
B4: no binding.
B5: no binding.
B6: no binding.

Reference: US20120328616A1 (Amgen, published 2012)
